Experimental findings from patent publication US20160024208A1 (Regeneron, published 2016) are described below.

Changes are numbered by the printed parent chain.

For experiment [1], the target named is T1, full-length human Nav1.7 fused at its N-terminus to GFP, expressed in HEK293 cells (human, UniProt Q15858 1-1988). The experiment can be described thus: cell-based or functional assay.
Experiment [2] concerns the target T2, Native Nav1.7 (3-3) peptide, rat (rat).
T2 construct: ELISA peptide
T2 peptide: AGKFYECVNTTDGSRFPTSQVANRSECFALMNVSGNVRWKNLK
Nature of the experiment: ELISA on coated peptide. The procedure:
(§1) Anti-Naᵥ 1.7 antibodies were tested for their ability to bind to the Naᵥ 1.7 peptides. The various peptides were coated overnight onto 96-well Nunc Immunosorp plates at a concentration of 4 μg/mL in PBS, followed by blocking for 1 hour in a suitable blocking agent. For biotinylated peptides, avidin was first coated on Nunc Immunosorp plates at 2 μg/mL in PBS overnight, followed by blocking as described, and the plate was then coated with biotinylated peptides at a concentration of 0.4 μg/mL and incubated for 1 hour at room temperature. Purified anti-Naᵥ 1.7 antibodies were diluted to a final concentration of 0.1 μg/mL and 1.0 μg/mL and added to the wells of the coated microtiter plates followed by incubation for 1 hour at room temperature. Bound antibodies were detected with horseradish peroxidase (HRP) conjugated anti-mouse or anti-human IgG (Jackson Immuno Research Lab, West Grove, Pa.) depending on the antibody species and developed by colorimetric response using tetramethylbenzidine (TMB) substrate (BD Biosciences). Absorbance was read at OD₄₅₀ on a plate reader for 0.1 second.
(§2) Values in Table 11 represent absolute binding ranges (at OD450) to plate-coated peptides for antibodies added at 1 μg/ml as follows: OD450<0.2: −; 0.2<OD450<1: +; 1<OD450<2: ++; 2<OD450<4: +++; NT: Not Tested.
On the technique in general: ELISA stands for enzyme-linked immunosorbent assay.

Experiment [3] deals with T3, N-Term Biotin-Nav1.7 (3-3) peptide, human (same sequence of EC3-3 for mulatta) (human (same sequence of EC3-3 for …, not fully specified; N-terminal biotin attached via a G4S linker).
T3 construct: ELISA peptide
T3 peptide: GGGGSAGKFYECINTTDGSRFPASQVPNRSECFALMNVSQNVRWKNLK
The experiment can be described thus: ELISA on coated peptide, antibody 1 ug/ml, OD450 grade; Human. The procedure:
as §1, §2

The target of experiment [4] is T3, N-Term Biotin-Nav1.7 (3-3) peptide, …. The experiment can be described thus: ELISA on coated peptide, antibody 1 ug/ml, OD450 grade; Monkey column. The procedure: as §1, §2
Experiment [5] deals with T4, C-term Biotin Nav1.7 (3-1) peptide, human (human, not fully specified; C-terminal biotin attached via a G4S linker).
T4 construct: Synthetic peptide; also called Human Nav1.7 3-1 C-term biotin
T4 peptide: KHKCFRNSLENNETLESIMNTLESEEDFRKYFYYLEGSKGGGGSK
Nature of the experiment: SPR, captured biotin-peptide, antibody analyte. On the technique in general: In SPR one partner is held on a chip, and binding of the other changes the refractive index at the surface.

The target in experiment [6] is T5, N-Term Biotin Nav1.7 (3-1) peptide, mulatta (mulatta (monkey), not fully specified; N-terminal biotin attached via a G4S linker).
T5 construct: Synthetic peptide; also called Mulatta Nav1.7 3-1 N-term biotin; monkey
T5 peptide: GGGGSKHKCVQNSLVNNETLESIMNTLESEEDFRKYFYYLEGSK
The experiment can be described thus: ELISA on coated peptide, antibody 1 ug/ml, OD450 grade. The essentials:
(§3)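 Binding graded from absorbance at OD450 for antibodies applied at 1 μg/ml (− below 0.2, + 0.2–1, ++ 1–2, +++ 2–4; NT not tested); antibodies were also run at 0.1 μg/mL. Biotin-peptides at 0.4 μg/mL on avidin-coated plates, other peptides at 4 μg/mL; 1 h RT binding; HRP anti-IgG/TMB detection.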

Experiment [7] deals with T6, Native Nav1.7 (3-1) peptide, rat (rat).
T6 construct: Synthetic peptide; also called Rat Nav1.7 3-1 native
T6 peptide: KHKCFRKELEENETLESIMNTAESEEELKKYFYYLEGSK
The experiment is described as above. The essentials: as §3

Experiment [8] addresses T7, N-Term Biotin-Nav1.7 (3-1) peptide, human (human, not fully specified; N-terminal biotin attached via a G4S linker).
T7 construct: ELISA peptide
T7 peptide: T5 peptide with V10F, Q11R, V15E
Described as above. The essentials: as §3

Experiment [9] has as its target T1, full-length human Nav1.7 fused at its …. The experiment can be described thus: flow cytometry; % stained hNav1.7-GFP-HEK293 minus parental HEK293. The method, boiled down: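 Percent-stained values come from FACS of healthy live cells, taking transfected-cell staining minus parental HEK293 staining. Cells were exposed on ice for 20 min to 1-13 nM antibody, then 20 min to 1.7 nM fluorescent anti-human or anti-mouse Fc secondary.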
For orientation: A flow cytometer gives signals particle by particle.

The target of experiment [10] is T8, Native Nav1.7 (3-1) peptide, human (human).
T8 construct: Synthetic peptide (Celtek), unbiotinylated; also called Human Nav1.7 3-1 native; Nav1.7 3-1 native peptide
T8 peptide: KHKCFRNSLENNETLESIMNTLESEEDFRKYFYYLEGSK
The experiment can be described thus: SPR, captured antibody, peptide analyte; IC = binding data could not be fit. The procedure:
The binding affinities of anti-Naᵥ 1.7 antibodies to Naᵥ 1.7 loop peptides were determined by Biacore. For monovalent kinetic experiments, antibodies were captured through the Fc region via a goat anti-Fc-coupled biosensor surface, and the peptides (as analyte) were injected over this captured antibody surface. For bivalent (avidity-driven) kinetic experiments, biotinylated peptides corresponding to the Naᵥ 1.7 3-1, 3-3, or paddle loop sequences were captured on a NeutrAvidin sensor surface, and anti-Naᵥ 1.7 antibodies (as analyte) were injected over this surface. Following the capture step, each analyte was individually injected at several concentrations over its respective capture surface, and changes in bound surface units (RU) were monitored. The dissociation rate is independent of the concentration of analyte used in the experiment, and the dissociation rate constant (kd) was determined from the change in antibody-bound analyte RU over time. The Biacore kinetic data were obtained using a double referencing procedure. […] The KD was calculated as the dissociation rate constant divided by the association rate constant (KD=kd/kₐ). The dissociative half-life (t_{1/2}) was calculated from the dissociation rate constant (t_{1/2}=In2/kd).

For experiment [11], the target named is T8, Native Nav1.7 (3-1) peptide, human. Nature of the experiment: Biacore (second token of ELISA/Biacore summary).
The target in experiment [12] is T5, N-Term Biotin Nav1.7 (3-1) peptide, …. Nature of the experiment: ELISA on coated peptide. Here is the method: as §1, §2
Experiment [13] addresses T8, Native Nav1.7 (3-1) peptide, human. Nature of the experiment: SPR, captured antibody, peptide analyte. The essentials: (§4)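 Peptide analytes flowed at multiple concentrations over anti-Nav1.7 antibodies held by an anti-Fc capture surface. After reference-surface and buffer-blank subtraction, a global 1:1 Langmuir fit gave ka and kd, with KD as kd/ka and dissociative half-life as ln2/kd.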

The target in experiment [14] is T5, N-Term Biotin Nav1.7 (3-1) peptide, …. Nature of the experiment: SPR, captured antibody, peptide analyte. The method, boiled down: as §4
Experiment [15] addresses T9, N-term Biotin Nav1.7 (3-3) peptide, mouse (mouse, N-terminal biotin attached via a G4S linker).
T9 construct: ELISA peptide
T9 peptide: T2 peptide with P17S, T18V
The experiment can be described thus: ELISA on coated peptide. The procedure: as §1, §2

The target of experiment [16] is T2, Native Nav1.7 (3-3) peptide, rat. Nature of the experiment: ELISA on coated peptide, antibody 1 ug/ml, OD450 grade. The method, boiled down:
as §3

B1: H4H471B (antibody, V domains shown)
VH: EVQLVESGGGLVKPGGSLRLSCAASGVTFSDYYMTWIRQAPGKGLEWVSYISTDGRTIYYADSVKGRFTISRDNAKNSLYLQMNNLRAEDTAVYYCARGVDSDDYEDFYSYYDMDVWGQGTTVTVSS
VL: DIQMTQSPSSLSASVGDRVTITCRASQGISNYLAWFQQKPGKAPKSLIYAASSLQGGVPSRFSGSGSGTDFTLTISSLQPEDFATYYCQQYNSYPLTFGGGTKVEIKR
As to B1, the “Current blocking (Average % inhibition), IonWorks Quattro, 223 nM antibody” value (shortened to “Current blocking (Average % inhibition)”) in experiment [1] is 57%. In addition, the OD450 in experiment [2] was under 0.2 od; in experiment [3] it was 2 to 4 od; in experiment [4] it was 2 to 4 od.

B2: H1H1003B (antibody, V domains shown)
VH: QVQLVESGGGLVQPGGSLRLSCAASGFTLSSYAMSWVRQAPGKGLEWVSTISGSGIIYYTDSVKGRFTISRDSSKNTLYLQMNSLRVEDTAVYYCAKDRGAAAGAFDYWGQGTLVTVSS
VL: AIQLTQSPDSLAVSLGERATIKCKSSQSVLYSSNNKNYLAWYQQKPGQPPNLLIYWASTRESGVPDRFSGSGSGTDFTLTISSLQAEDVAVYYCQQYFSFGQGTKVDIKR
Broadly, the Kd is the concentration at which binding is half-saturated. As to B2, the “Current blocking (Average % inhibition)” value in experiment [1] came out at 32.5%. In addition, the Kd in [5] was determined as 2.64 nM. This molecule also displayed a t1/2 in experiment [5] of 27.8 min. Besides, the OD450 in experiment [6], in experiment [7] and in experiment [8] was 2 to 4 od in each case. Besides, the “% Binding Nav1.7” value in experiment [9] turned out to be 1.3%. The binding result in [10] is “binds”.

B3: H4H439B (antibody, V domains shown)
VH: QVQLQQWGAGLLKPSETLSLTCAVYGGSFSGHYWSWIRQPPGKGLEWIGEINHRGSTNYNPSLKSRATISVDTSKNQFSLKLSSVTAADTAVYYCAREGSLAARLWFFDLWGRDTLVTVSS
VL: DIQMTQSPSSLSASVGDRGTITCRASQDIRTYLNWYQQKPGKAPKLLIYAASSLQSGVPSRFSGSGSGTDFTLTISSLQPEDFATYYCQQSYGTPYTFGQGTKVEIKR
Turning to B3, the “Current blocking (Average % inhibition)” value in experiment [1] turned out to be 33.6%. For the same molecule, the binding result in experiment [11] was “binds”. Also, the results for the OD450 in [6], in experiment [7] and in experiment [8] were 2 to 4 od, 1 to 2 od and 2 to 4 od, respectively.

B4: H4H448B (antibody, V domains shown)
VH: EVQLVQSGGGLVQPGRSLRLSCAASGFTFDDYAMHWVRQAPGKGLEWVSGISWNSGSIGYADSVKGRFTISRDNAKNSLYLQMNSLRAEDTALYYCAKDIEYYDILTGYYSYYIMDVWGQGTTVTVSS
VL: B3 VL with Q3R, D28N, R30N, T31S, Q38L, Y49F, G93S, T94S, Y96F
With B4, in experiment [12], the OD450 is under 0.2 od. In experiment [13], this molecule gave a Kd of 21.9 nM and a t1/2 of 1.8 min. Moreover, the binding result in experiment [14] was “no binding”. Further, the OD450 in experiment [8] lay in the range of 2 to 4 od.

B5: H4H468B (antibody, V domains shown)
VH: EVQLVQSGGGVVQPGRSLRLSCTASGFTFSVYGIHWVRQAPGKGLEWVAVIWYDGSNKYYTDSVKGRFTISRDNSKNTLYLQMNSLRAEDTALYYCAREGDLSSSSGSGGYHYVVDVWGQGTMVTVSS
VL: DIQMTQSPSSLSASVGDRVTITCRASQDIRNDLGWYQQKPGNAPKLLIYSTSSLQSGVPSRFSGSGSGTDFTLTISSLQPEDFATYYCLQDYNYPLTFGGGTKVEIKR
B5: the OD450 in experiment [15] was under 0.2 od; in [16], 2 to 4 od; in experiment [3], 1 to 2 od; in [4], 1 to 2 od.
